Six molecules from patent US20260055143A1, “HIGH AFFINITY VARIANTS OF SH2 DOMAINS” (Axoiya Inc., priority 2023, published 2026) can be followed below.

In assay [1] the target is pTyr-containing peptide (pEZ) derived from Ezrin, PPV{pTyr}EPVS. The assay is described as follows: fluorescence polarization; fold change over wt Fes SH2.
For assay [2] the target is unchanged. Description: phage ELISA, phage-displayed clone on immobilized peptide.
Assay [3] shares this target. The assay is described as follows: fluorescence polarization, purified SH2 domain with fluorescein-labelled ezrin phosphopeptide.

B1: sFes^4, superbinder Fes SH2 domain variant (designed binder)
chain: MKIEEHHHHHHSSGKLGLNDIFEAQKIEWHESSGEDLYFQSGTTMDDYKDDDDKGGSEVQKPLHEQLWYHGAIPRAEVAELLVHSGDFLVRESQGRKVYVLSVLWDGLPRHFIIQSLDNLYRLEGEGFPSIPLLIDHLLSTQQPLTKKSGVVLHRAVPSR
As to B1, the Fold Change in assay [1] turned out to be 77 fold. In assay [2], this molecule had a binding signal for pEZ over that for the unphosphorylated peptide EZ of 10 fold. In assay [3], this molecule showed an IC50 of 17.4 nM.

B2: sFes^6, superbinder Fes SH2 domain variant (designed binder)
chain: MKIEEHHHHHHSSGKLGLNDIFEAQKIEWHESSGEDLYFQSGTTMDDYKDDDDKGGSEVQKPLHEQLWYHGAIPRAEVAELLVHSGDFIVRESQTYPGYVLSVLWDGLPRHFIIQSLDNLYRLEGEGFPSIPLLIDHLLSTQQPLTKKSGVVLHRAVPSR
As for B2, the Fold Change in assay [1] was 28 fold. This molecule also displayed a binding signal for pEZ over that for the unphosphorylated peptide EZ in assay [2] of 10 fold. In addition, the IC50 in assay [3] is 48 nM.

B3: sFes^3, superbinder Fes SH2 domain variant (designed binder)
chain: MKIEEHHHHHHSSGKLGLNDIFEAQKIEWHESSGEDLYFQSGTTMDDYKDDDDKGGSEVQKPLHEQLWYHGAIPRAEVAELLVHSGDFLVRESPRIQEYVLSVLWDGLPRHFIIQSLDNLYRLEGEGFPSIPLLIDHLLSTQQPLTKKSGVVLHRAVPSR
As for B3, in assay [1], the Fold Change came out at 95.9 fold. Moreover, the binding signal for pEZ over that for the unphosphorylated peptide EZ in assay [2] amounted to 10 fold. This molecule also gave a 50% inhibitory concentration (IC50) in assay [3] of 14 nM.

B4: sFes^5, superbinder Fes SH2 domain variant (designed binder)
chain: MKIEEHHHHHHSSGKLGLNDIFEAQKIEWHESSGEDLYFQSGTTMDDYKDDDDKGGSEVQKPLHEQLWYHGAIPRAEVAELLVHSGDFLVRESISKQGYVLSVLWDGLPRHFLIQSLDNLYRLEGEGFPSIPLLIDHLLSTQQPLTKKSGVVLHRAVPSR
On to B4, for which, in assay [1], the Fold Change turned out to be 33.8 fold. The binding signal for pEZ over that for the unphosphorylated peptide EZ in assay [2] stood at 10 fold. The IC50 in assay [3] came to 39.7 nM.

B5: sFes^1 (SuperFes), superbinder Fes SH2 domain variant (designed binder)
chain: MKIEEHHHHHHSSGKLGLNDIFEAQKIEWHESSGEDLYFQSGTTMDDYKDDDDKGGSEVQKPLHEQLWYHGAIPRAEVAELLVHSGDFLVREGQSQPDYVLSVLWDGLPRHFIIQSLDNLYRLEGEGFPSIPLLIDHLLSTQQPLTKKSGVVLHRAVPSR
Molecule B5 gave a Fold Change in assay [1] of 493 fold. Also, the binding signal for pEZ over that for the unphosphorylated peptide EZ in assay [2] came to 10 fold. In assay [3], this molecule had an IC50 of 2.7 nM.

B6: sFes^2, superbinder Fes SH2 domain variant (designed binder)
chain: MKIEEHHHHHHSSGKLGLNDIFEAQKIEWHESSGEDLYFQSGTTMDDYKDDDDKGGSEVQKPLHEQLWYHGAIPRAEVAELLVHSGDFLVRERQRKQEYVLSVLWDGLPRHFIIQSLDNLYRLEGEGFPSIPLLIDHLLSTQQPLTKKSGVVLHRAVPSR
Molecule B6 returned a Fold Change in assay [1] of 344 fold. Besides, the binding signal for pEZ over that for the unphosphorylated peptide EZ in assay [2] was 10 fold. For the same molecule, the half-maximal inhibitory concentration (IC50) in assay [3] was 3.9 nM.
